± gives the standard deviation of the averaged measurements.
Assay: total protein half-life in vivo (active degradation + dilution); higher = more stable protein
[1] = E. coli NCM3722 delta-smpB, growth: N-lim chemostat, doubling time 6 h
[2] = E. coli NCM3722 delta-clpP delta-lon delta-hslV, growth: N-lim chemostat, doubling time 6 h
[3] = E. coli NCM3722 delta-clpP, growth: N-lim chemostat, doubling time 6 h
[4] = E. coli NCM3722 delta-hslV, growth: N-lim chemostat, doubling time 6 h
[5] = wild type E. coli NCM3722, growth: C-lim chemostat, doubling time 3 h
[6] = wild type E. coli NCM3722, growth: C-lim chemostat, doubling time 6 h
[7] = wild type E. coli NCM3722, growth: C-lim chemostat, doubling time 12 h
[8] = wild type E. coli NCM3722, growth: N-lim chemostat, doubling time 6 h
[9] = wild type E. coli NCM3722, growth: N-lim chemostat, doubling time 12 h
[10] = wild type E. coli NCM3722, growth: P-lim chemostat, doubling time 6 h
[11] = wild type E. coli NCM3722, growth: P-lim chemostat, doubling time 12 h
[12] = E. coli NCM3722 delta-lon, growth: N-lim chemostat, doubling time 6 h

## MNPLLTDSRRQALRSASHWYAVLSGERVSPQQEARWQQWYEQDQDNQWAWQQVENLRNQLGGVPGDVASRALHDTRLTRRHVMKGLLLLLGAGGGWQLWQSETGEGLRADYRTAKGTVSRQQLEDGSLLTLNTQSAADVRFDAHQRTVRLWYGEIAITTAKDALQRPFRVLTRQGQLTALGTEFTVRQQDNFTQLDVQQHAVEVLLASAPAQKRIVNAGESLQFSASEFGAVKPLDDESTSWTKDILSFSDKPLGEVIATLTRYRNGVLRCDPAVAGLRLSGTFPLKNTDAILNVIAQTLPVKIQSITRYWINISPL
[1]
  total protein half-life in vivo: 0.672 h

## MKATKLVLGAVILGSTLLAGCSSNAKIDQLSSDVQTLNAKVDQLSNDVNAMRSDVQAAKDDAARANQRLDNMATKYRK
[2]
  total protein half-life in vivo: 5.79 ± 1.4 h
[3]
  total protein half-life in vivo: 6.38 ± 0.67 h
[4]
  total protein half-life in vivo: 5.95 ± 0.4 h
[1]
  total protein half-life in vivo: 5.03 ± 0.051 h
[5]
  total protein half-life in vivo: 3.11 ± 0.35 h
[6]
  total protein half-life in vivo: 4.92 ± 0.76 h
[7]
  total protein half-life in vivo: 11.2 ± 3.2 h
[8]
  total protein half-life in vivo: 5.81 ± 0.7 h
[9]
  total protein half-life in vivo: 11.7 ± 3.1 h
[10]
  total protein half-life in vivo: 5.66 ± 0.3 h
[11]
  total protein half-life in vivo: 12.1 ± 0.34 h

## MLPSISINNTSAAYPESINENNNDEVNGLVQEFKNLFNGKEGISTCIKHLLELIKNAIRVNDDPYRFNINNSSVTYIDIDSNDTDHITIGIDNQEPIELPANYKDKELVRTIINDNIVEKTHDINNKEMIFSALKEIYDGDPGFIFDKISHKLRHTVTEFDESGKSEPTDLFTWYGKDKKGDSLAIVIKNKNGNDYLSLGYYDQDDYHIQRGIRINGDSLTQYCSENARSASAWFESSKAIMAESFATGSDHQVVNELNGERLREPNDVFKRYGRAIRYDFQVDDAKYKCDHLKEIVSTLVGNKINVGHSQKIYKHFKDLEGKIEERLQNRQAEYQNEINQPSAPGVNFDDI
[8]
  total protein half-life in vivo: 5.3 h

## MLLNALASLGHKGIKTLRTFGRAGLMLFNALVGKPEFRKHAPLLVRQLYNVGVLSMLIIVVSGVFIGMVLGLQGYLVLTTYSAETSLGMLVALSLLRELGPVVAALLFAGRAGSALTAEIGLMRATEQLSSMEMMAVDPLRRVISPRFWAGVISLPLLTVIFVAVGIWGGSLVGVSWKGIDSGFFWSAMQNAVDWRMDLVNCLIKSVVFAITVTWISLFNGYDAIPTSAGISRATTRTVVHSSLAVLGLDFVLTALMFGN
[3]
  total protein half-life in vivo: 6.31 h
[4]
  total protein half-life in vivo: 6.03 h
[12]
  total protein half-life in vivo: 4.82 h
[1]
  total protein half-life in vivo: 5.29 h
[5]
  total protein half-life in vivo: 3.19 h
[8]
  total protein half-life in vivo: 7.45 h
[9]
  total protein half-life in vivo: 11.3 h
[10]
  total protein half-life in vivo: > 8 h
[11]
  total protein half-life in vivo: 11.55 ± 0.11 h

## MKAPGLPADQQFFADLFSGLVLNPQLLGRVWFASQPASLPVGSLCIDFPRLDIVLRGEYGNLLEAKQQRLVEGEMLFIPARAANLPVNNKPVMLLSLVFAPTWLGLSFYDSRTTSLLHPARQIQLPSLQRGEGEAMLTALTHLSRSPLEQNIIQPLVLSLLHLCRSVVNMPPGNSQPRGDFLYHSICNWVQDNYAQPLTRESVAQFFNITPNHLSKLFAQHGTMRFIEYVRWVRMAKARMILQKYHLSIHEVAQRCGFPDSDYFCRVFRRQFGLTPGEYSARFQG
[2]
  total protein half-life in vivo: 5.03 h
[6]
  total protein half-life in vivo: 1.83 h

## MSELLSFALFLASVLIYAWKAGRNTWWFAATLTVLGLFVVLNITLFASDYFTGDGINDAVLYTLTNSLTGAGVSKYILPGIGIVLGLTAVFGALGWILRRRRHHPHHFGYSLLALLLALGSVDASPAFRQITELVKSQSRDGDPDFAAYYKEPSKTIPDPKLNLVYIYGESLERTYFDNEAFPDLTPELGALKNEGLDFSHTQQLPGTDYTIAGMVASQCGIPLFAPFEGNASASVSSFFPQNICLGDILKNSGYQNYFVQGANLRFAGKDVFLKSHGFDHLYGSEELKSVVADPHYRNDWGFYDDTVLDEAWKKFEELSRSGQRFSLFTLTVDTHHPDGFISRTCNRKKYDFDGKPNQSFSAVSCSQENIATFINKIKASPWFKDTVIVVSSDHLAMNNTAWKYLNKQDRNNLFFVIRGDKPQQETLAVKRNTMDNGATVLDILGGDNYLGLGRSSLSGQSMSEIFLNIKEKTLAWKPDIIRLWKFPKEMKEFTIDQQKNMIAFSGSHFRLPLLLRVSDKRVEPLPESEYSAPLRFQLADFAPRDNFVWVDRCYKMAQLWAPELALSTDWCVSQGQLGGQQIVQHVDKTTWQGKTAFKDTVIDMARYKGNVDTLKIVDNDIRYKADSFIFNVAGAPEEVKQFSGISRPESWGRWSNAQLGDEVKIEYKHPLPKKFDLVITAKAYGNNASRPIPVRVGNEEQTLVLGNEVTTTTLHFDNPTDADTLVIVPPEPVSTNEGNILGHSPRKLGIGMVEIKVVEREG
[2]
  total protein half-life in vivo: 4.02 ± 0.17 h
[3]
  total protein half-life in vivo: 2.98 ± 0.2 h
[4]
  total protein half-life in vivo: 3.42 ± 0.56 h
[12]
  total protein half-life in vivo: 4.63 ± 0.46 h
[1]
  total protein half-life in vivo: 3.47 ± 0.035 h
[5]
  total protein half-life in vivo: 2.17 ± 0.05 h
[6]
  total protein half-life in vivo: 2.99 ± 0.12 h
[7]
  total protein half-life in vivo: 3.93 ± 0.84 h
[8]
  total protein half-life in vivo: 3.35 ± 0.42 h
[9]
  total protein half-life in vivo: 4.45 ± 0.4 h

## MEFTTGLMSLDTALNEMLSRVTPLTAQETLPLVQCFGRILASDVVSPLDVPGFDNSAMDGYAVRLADIASGQPLPVAGKSFAGQPYHGEWPAGTCIRIMTGAPVPEGCEAVVMQEQTEQMDNGVRFTAEVRSGQNIRRRGEDISAGAVVFPAGTRLTTAELPVIASLGIAEVPVIRKVRVALFSTGDELQLPGQPLGDGQIYDTNRLAVHLMLEQLGCEVINLGIIRDDPHALRAAFIEADSQADVVISSGGVSVGEADYTKTILEELGEIAFWKLAIKPGKPFAFGKLSNSWFCGLPGNPVSATLTFYQLVQPLLAKLSGNTASGLPARQRVRTASRLKKTPGRLDFQRGVLQRNADGELEVTTTGHQGSHIFSSFSLGNCFIVLERDRGNVEVGEWVEVEPFNALFGGL
[4]
  total protein half-life in vivo: 4.41 ± 0.22 h
[12]
  total protein half-life in vivo: 4.63 ± 0.21 h
[1]
  total protein half-life in vivo: 4.88 ± 0.29 h
[5]
  total protein half-life in vivo: 2.741 ± 0.013 h
[6]
  total protein half-life in vivo: 4.96 ± 0.85 h
[7]
  total protein half-life in vivo: 11.1 ± 0.4 h
[8]
  total protein half-life in vivo: 4.07 ± 0.22 h
[9]
  total protein half-life in vivo: 7.4293 ± 0.003 h
[10]
  total protein half-life in vivo: 5.64 ± 0.34 h
[11]
  total protein half-life in vivo: 11.1 ± 1.6 h

## MNVIAILNHMGVYFKEEPIRELHRALERLNFQIVYPNDRDDLLKLIENNARLCGVIFDWDKYNLELCEEISKMNENLPLYAFANTYSTLDVSLNDLRLQISFFEYALGAAEDIANKIKQTTDEYINTILPPLTKALFKYVREGKYTFCTPGHMGGTAFQKSPVGSLFYDFFGPNTMKSDISISVSELGSLLDHSGPHKEAEQYIARVFNADRSYMVTNGTSTANKIVGMYSAPAGSTILIDRNCHKSLTHLMMMSDVTPIYFRPTRNAYGILGGIPQSEFQHATIAKRVKETPNATWPVHAVITNSTYDGLLYNTDFIKKTLDVKSIHFDSAWVPYTNFSPIYEGKCGMSGGRVEGKVIYETQSTHKLLAAFSQASMIHVKGDVNEETFNEAYMMHTTTSPHYGIVASTETAAAMMKGNAGKRLINGSIERAIKFRKEIKRLRTESDGWFFDVWQPDHIDTTECWPLRSDSTWHGFKNIDNEHMYLDPIKVTLLTPGMEKDGTMSDFGIPASIVAKYLDEHGIVVEKTGPYNLLFLFSIGIDKTKALSLLRALTDFKRAFDLNLRVKNMLPSLYREDPEFYENMRIQELAQNIHKLIVHHNLPDLMYRAFEVLPTMVMTPYAAFQKELHGMTEEVYLDEMVGRINANMILPYPPGVPLVMPGEMITEESRPVLEFLQMLCEIGAHYPGFETDIHGAYRQADGRYTVKVLKEESKK [P0A9H3]
[3]
  total protein half-life in vivo: 5.68 h
[11]
  total protein half-life in vivo: 11.6 h

## MANPLYQKHIISINDLSRDDLNLVLATAAKLKANPQPELLKHKVIASCFFEASTRTRLSFETSMHRLGASVVGFSDSANTSLGKKGETLADTISVISTYVDAIVMRHPQEGAARLATEFSGNVPVLNAGDGSNQHPTQTLLDLFTIQETQGRLDNLHVAMVGDLKYGRTVHSLTQALAKFDGNRFYFIAPDALAMPQYILDMLDEKGIAWSLHSSIEEVMAEVDILYMTRVQKERLDPSEYANVKAQFVLRASDLHNAKANMKVLHPLPRVDEIATDVDKTPHAWYFQQAGNGIFARQALLALVLNRDLVL [P0A786]
[2]
  total protein half-life in vivo: 6.1 ± 1.2 h
[3]
  total protein half-life in vivo: 4.74 ± 0.28 h
[4]
  total protein half-life in vivo: 4.54 ± 0.5 h
[12]
  total protein half-life in vivo: 4.9 ± 0.09 h
[1]
  total protein half-life in vivo: 5.02 ± 0.63 h
[5]
  total protein half-life in vivo: 3.22 ± 0.23 h
[6]
  total protein half-life in vivo: 5.83 ± 0.35 h
[7]
  total protein half-life in vivo: 10.4 ± 1.8 h
[8]
  total protein half-life in vivo: 4.75 ± 0.085 h
[9]
  total protein half-life in vivo: 8.23 ± 1.4 h
[10]
  total protein half-life in vivo: 5.94 ± 0.21 h
[11]
  total protein half-life in vivo: 10.7 ± 0.62 h
